Data on one substance can be found in article PMC12467718.

The target of this assay is mouse laminin (mouse). The assay can be described thus: ELISA; ELISA-type: mouse laminin coated on a black polystyrene plate, 50 µg/mL biotinylated-Gal-8, 37 °C 1 h, Streptavidin-Alexa 488, fluorescence (RFU). On the technique in general: In an ELISA, binding on a coated surface is turned into a signal by an enzyme label.

With “biotinylated human Galectin-8 (natural protein)”, the relative fluorescence units (RFU) stood at 4000 RFU.
